According to patent US20180185459A1 (PORTOLA PHARMACEUTICALS, published 2018):
Numbering of substitutions follows the chain as printed. Blank lines part the entries; values can stand above or below the binder they belong to.

Tests used:
[1] = target: T1, cofactor factor Va of the prothrombinase complex (endogenous, in human plasma), P12259
T1 chain 1: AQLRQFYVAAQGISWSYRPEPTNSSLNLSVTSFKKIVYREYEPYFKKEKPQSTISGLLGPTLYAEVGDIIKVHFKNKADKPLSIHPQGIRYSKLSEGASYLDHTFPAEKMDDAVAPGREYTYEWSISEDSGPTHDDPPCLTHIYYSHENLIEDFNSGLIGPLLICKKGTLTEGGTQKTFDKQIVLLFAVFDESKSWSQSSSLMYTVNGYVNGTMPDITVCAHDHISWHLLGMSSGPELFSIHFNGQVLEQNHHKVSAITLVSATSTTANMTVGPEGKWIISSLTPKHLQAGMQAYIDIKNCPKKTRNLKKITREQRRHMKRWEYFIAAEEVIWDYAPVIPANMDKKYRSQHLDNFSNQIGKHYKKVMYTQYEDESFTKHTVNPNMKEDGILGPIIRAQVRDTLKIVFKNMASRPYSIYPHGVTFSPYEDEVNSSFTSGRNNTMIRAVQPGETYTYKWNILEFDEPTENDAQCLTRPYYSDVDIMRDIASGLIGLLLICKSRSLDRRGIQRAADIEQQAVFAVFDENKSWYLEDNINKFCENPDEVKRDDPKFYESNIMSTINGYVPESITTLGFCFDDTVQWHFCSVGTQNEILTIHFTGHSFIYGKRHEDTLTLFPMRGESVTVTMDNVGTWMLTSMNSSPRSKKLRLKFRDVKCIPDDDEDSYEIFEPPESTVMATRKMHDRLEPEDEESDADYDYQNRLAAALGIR
T1 chain 2: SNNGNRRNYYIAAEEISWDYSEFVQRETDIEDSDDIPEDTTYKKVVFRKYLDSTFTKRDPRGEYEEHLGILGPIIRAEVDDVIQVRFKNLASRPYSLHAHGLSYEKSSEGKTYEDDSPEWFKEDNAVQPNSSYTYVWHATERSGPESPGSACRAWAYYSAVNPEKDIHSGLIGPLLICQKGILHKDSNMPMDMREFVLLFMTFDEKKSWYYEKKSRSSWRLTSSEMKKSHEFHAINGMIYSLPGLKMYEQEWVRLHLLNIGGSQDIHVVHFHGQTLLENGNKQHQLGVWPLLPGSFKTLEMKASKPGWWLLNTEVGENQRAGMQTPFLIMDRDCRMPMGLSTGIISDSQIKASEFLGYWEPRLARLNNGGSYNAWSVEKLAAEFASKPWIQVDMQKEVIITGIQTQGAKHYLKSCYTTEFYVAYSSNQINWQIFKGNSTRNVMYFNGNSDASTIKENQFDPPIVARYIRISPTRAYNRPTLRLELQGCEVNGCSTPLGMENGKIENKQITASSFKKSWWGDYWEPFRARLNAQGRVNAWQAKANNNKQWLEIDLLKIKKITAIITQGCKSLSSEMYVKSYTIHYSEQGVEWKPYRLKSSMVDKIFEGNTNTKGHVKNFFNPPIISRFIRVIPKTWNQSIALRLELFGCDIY

[2] = target: ATIII-fondaparinux complex (human antithrombin III with fondaparinux bound) (human, UniProt P01008 33-464, non-covalently bound fondaparinux (synthetic pentasaccharide)); experiment: cell-based or functional assay
Chain of ATIII-fondaparinux complex (human antithrombin III with fondaparinux bound) (P01008 33-464 limits assumed, one chain of several): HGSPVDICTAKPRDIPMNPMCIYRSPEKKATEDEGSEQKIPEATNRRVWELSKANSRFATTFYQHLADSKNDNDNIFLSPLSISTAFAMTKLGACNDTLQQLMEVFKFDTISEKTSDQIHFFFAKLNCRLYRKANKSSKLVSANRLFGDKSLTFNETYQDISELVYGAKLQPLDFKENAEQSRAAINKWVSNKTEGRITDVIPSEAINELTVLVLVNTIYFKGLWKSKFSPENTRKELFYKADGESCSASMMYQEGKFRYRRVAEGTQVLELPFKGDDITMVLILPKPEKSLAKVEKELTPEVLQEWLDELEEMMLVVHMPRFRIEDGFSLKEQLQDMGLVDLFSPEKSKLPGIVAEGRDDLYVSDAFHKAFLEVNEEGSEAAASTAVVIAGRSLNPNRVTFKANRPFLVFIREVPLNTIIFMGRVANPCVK

B1: EGR-Xa, active site inhibited full length human fXa (human plasma derived) (protein)
chain 1: ANSFLEEMKKGHLERECMEETCSYEEAREVFEDSDKTNEFWNKYKDGDQCETSPCQNQGKCKDGLGEYTCTCLEGFEGKNCELFTRKLCSLDNGDCDQFCHEEQNSVVCSCARGYTLADNGKACIPTGPYPCGKQTLER
chain 2: IVGGQECKDGECPWQALLINEENEGFCGGTILSEFYILTAAHCLYQAKRFKVRVGDRNTEQEEGGEAVHEVEVVIKHNRFTKETYDFDIAVLRLKTPITFRMNVAPACLPERDWAESTLMTQKTGIVSGFGRTHEKGRQSTRLKMLEVPYVDRNSCKLSSSFIITQNMFCAGYDTKQEDACQGDSGGPHVTRFKDTYFVTGIVSWGEGCARKGKYGIYTKVTAFLKWIDRSMKTRGLPKAKSHAPEVITSSPLK
IIa formation (RFU) in tissue factor-initiated thrombin generation in human plasma against EGR-Xa concentration [1]: circles: falls steeply from about 380,000 RFU at 0 nM to about 180,000 and about 85,000 RFU at the next points, below 50,000 RFU by about 100 nM and about 10,000 RFU at about 500 nM

IC50 (read off the curve): r-Antidote concentration that halves kiapp of fXa inhibition by the ATIII-fondaparinux complex [2]: ~100 nM
B2: r-Antidote (processed two-chain polypeptide, human factor Xa triple mutant after removal of the -RKRRKR- linker) (other)
chain 1: ANSFLFWNKYKDGDQCETSPCQNQGKCKDGLGEYTCTCLEGFEGKNCELFTRKLCSLDNGDCDQFCHEEQNSVVCSCARGYTLADNGKACIPTGPYPCGKQTLER
chain 2: B1 chain 2 with S185A
